# Reference: patent US20070212363A1 (US Dept. of Health and Human Services, published 2007)
# Legend:
# Experiment in all cases: cell-based or functional assay
# [1] = target: T1, HIV-1 JR-FL envelope glycoprotein (Env) (HIV-1 strain JR-FL)
# [2] = target: HIV-1 AD8 envelope glycoprotein (Env) (HIV-1 strain AD8)
# [3] = target: HIV-1 IIIB envelope glycoprotein (Env) (HIV-1 strain IIIB)
# [4] = target: T1, HIV-1 JR-FL envelope glycoprotein (Env); remark: listed apart in the source
# [5] = target: HIV-1 AD8 envelope glycoprotein (Env) (HIV-1 strain AD8); remark: listed apart in the source
# [6] = target: HIV-1 IIIB envelope glycoprotein (Env) (HIV-1 strain IIIB); remark: listed apart in the source
binder,measurement,setting,value
scFv m9 (scFv) scFv: VLTQSPGTLSLSAGERATLSCRASQSVSSGSLAWYQQKPGQAPRLLIYGASTRATGIPDRFSGSGSGTDFTLTIGRLEPEDLAVYYCQQYGTSPYTFGQGTKLEIKRTGGGGSGGGGSGGGGSVQLLEQSGAEVKKPGSSVQVSCKAFGGTFSMYGFNWVRQAPGHGLEWMGGIIPIFGTTNYAQKFRGRVTFTADQATSTAYMELTNLRSDDTAVYYCARDFGPDWEGGDSYDGSGRGFFDFWGQGTLVNVSS,"percentage of maximal infection, U87.CD4.CCR5.CXCR4 cells, 100 µg/mL antibody",[1],20%
same,"percentage of maximal infection, U87.CD4.CCR5.CXCR4 cells, 100 µg/mL antibody",[2],6.1%
same,"percentage of maximal infection, U87.CD4.CCR5.CXCR4 cells, 100 µg/mL antibody",[3],12%
same,Neutralizing activity (percentage) at 100 µg/mL,[4],90%
same,Neutralizing activity (percentage) at 100 µg/mL,[5],100%
same,Neutralizing activity (percentage) at 100 µg/mL,[6],100%
